Patent US20250147035A1, “METHODS FOR DETECTION OF POST-TRANSLATIONAL MODIFICATIONS” (Quantum-Si Incorporated, priority 2023, published 2025)
Read-outs that look alike come from different tables or passages of the source. Primed or numbered codes have the meaning given here. Where no end group is shown, it is not given here. [ ]: non-standard residue; d: D form. pT = C[C@@H](OP(=O)(O)O)[C@H](N)C(=O)O; pS = N[C@@H](COP(=O)(O)O)C(=O)O; Biotin′ = not defined here

T1: …-Biotin
T1 sequence (peptide, C-terminal Biotin): SAKLDEESILKQ

T2: p…-Biotin
T2 sequence (peptide, phosphothreonine at 1; C-terminal Biotin): TAKLDEESILKQ

T3: pSAKLDEESILKQ-Biotin
T3 peptide: [pS]AKLDEESILKQ-{Biotin′}

T4: TAKLDEESILKQ-Biotin
T4 peptide: TAKLDEESILKQ-{Biotin′}

T5: pTAKLDEESILKQ-Biotin
T5 peptide: [pT]AKLDEESILKQ-{Biotin′}

B1: PM11 (Human/TOPBP1) (other)
chain: MVYNMVMSDVTISCTSLEKEKREEVHKYVQMMGGRVYRDLNVSVTHLIAGEVGSKKYLVAANLKKPILLPSWIKTLWEKSQEKKITRYTD
B2: PM22 (Schizosaccharomyces pombe/FCP1) (other)
chain: MKQKVLKGCRLLFSGVIPLGVDVLSSDIAKWAMSFGAEVVLDFSVPPTHLIAAKIRTEKVKKAVSMGNIKVVKLNWLTESLSQWKRLPESDYLL
B3: PM22: Schizosaccharomyces pombe/FCP1, SEQ ID NO: 22 (protein)
chain: MKQKVLKGCRLLFSGVIPLGVDVLSSDIAKWAMSFGAEVVLDFSVPPTHLIAAKIRTEKVKKAVSMGNIKVVKLNWLTESLSQWKRLPESDYLL
B4: PM21 (Human/PHF3) (other)
chain: MTFLARLNFIWKGFINMPSVAKFVTKAYPVSGSPEYLTEDLPDSIQVGGRISPQTVWDYVEKIKASGTKEICVVRFTPVTEEDQISYTLLFAYFSSRKRYGVAANNMKQVKDMYLIPLGATDKIPHPLVPFDGPGLELHRPNLLLGLIIRQKL
B5: PM20 (Human/RB15B) (other)
chain: MQLGWNGLLVLKNSCFPTSMHILEGDQGVISSLLKDHTSGSKLTQLKIAQRLRLDQPKLDEVTRRIKQGSPNGYAVLLATQATPSGLGTEGMPTVEPGLQRRLLRNLVSYLKQKQAAGVISLPVGGSKGRDGTGMLYAFPPCDFSQQYLQSALRTLGKLEEEHMVIVIVRDTA
B6: PM14 (Saccharomyces cerevisiae/RAD53) (other)
chain: MEDQDGKIQGFKIPAHAPIRYTQPKSIEAETREQKLLHSNNTENVKSSKKKGNGRFLTLKPLPDSIIQESLEIQQGVNPFFIGRSEDCNCKIEDNRLSRVHCFIFKKRHAVGKSMYESPAQGLDDIWYCHTGTNVSYLNNNRMIQGTKFLLQDGDEIKIIWDKNNKFVIGFKVEINDTTGLFNEGLGMLQEQRVVLKQTAEEKDLVKKLTQMMAAQRANQPSASSSSMSAKKPPVSDTNNNGNNSVLNDLVESPINANTGNILKRIHSVSLSQSQIDPSKKVKRAKLDQTSKGPENLQFS
B7: PM10 (Human/MCPH1) (other)
chain: MSGRGKKPTRTLVMTSMPSEKQNVVIQVVDKLKGFSIAPDVCETTTHVLSGKPLRTLNVLLGIARGCWVLSYDWVLWSLELGHWISEEPFELSHHFPAAPLCRSECHLSAGPYRGTLFADQPAMFVSPASSPPVAKLCELVHLCGGRVSQVPRQASIVIGPYSGKKKATVKYLSEKWVLDSITQHKVCAPENYLLSQ
B8: PM01 (Human/14-3-3 protein epsilon) (other)
chain: MDDREDLVYQAKLAEQAERYDEMVESMKKVAGMDVELTVEERNLLSVAYKNVIGARRASWRIISSIEQKEENKGGEDKLKMIREYRQMVETELKLICCDILDVLDKHLIPAANTGESKVFYYKMKGDYHRYLAEFATGNDRKEAAENSLVAYKAASDIAMTELPPTHPIRLGLALNFSVFYYEILNSPDRACRLAKAAFDDAIAELDTLSEESYKDSTLIMQLLRDNLTLWTSDMQGDGEEQNKEALQDVEDENQ
B9: PM04 (Human/14-3-3 protein gamma) (other)
chain: MVDREQLVQKARLAEQAERYDDMAAAMKNVTELNEPLSNEERNLLSVAYKNVVGARRSSWRVISSIEQKTSADGNEKKIEMVRAYREKIEKELEAVCQDVLSLLDNYLIKNCSETQYESKVFYLKMKGDYYRYLAEVATGEKRATVVESSEKAYSEAHEISKEHMQPTHPIRLGLALNYSVFYYEIQNAPEQACHLAKTAFDDAIAELDTLNEDSYKDSTLIMQLLRDNLTLWTSDQQDDDGGEGNN
B10: PM19 (Human/RBM15) (other)
chain: MAPVASASPKLCLAWQGMLLLKNSNFPSNMHLLQGDLQVASSLLVEGSTGGKVAQLKITQRLRLDQPKLDEVTRRIKVAGPNGYAILLAVPGSSDSRSSSSSAASDTATSTQRPLRNLVSYLKQKQAAGVISLPVGGNKDKENTGVLHAFPPCEFSQQFLDSPAKALAKSEEDYLVMIIVRGFGFQI
B11: PM23 (Human/Scp1) (other)
chain: MAFEELRVQAENARLDMHFKLKEDHEKIQHLQEEYKKEVNDKENQVSLLLIQRTEKENKMKDLTFLLEESRDKVNQLEDKTKLQDENVKELNKKKDHLTSELEDTKMSLQRSMNTQKALEEDLQIATKTIYQLTEEKEAQMEEFNKAKTDHSFMVTELKATTCTLEELLRTEQQRLVKNED
B12: PM17 (Human/DIDO1) (other)
chain: MTLFLSRLSTIWKGFINMQSVAKFVTKAYPVSGCFDYLSEDLPDTIHIGGRIAPKTVWDYVGKLKSSVSKELCLIRFHPATEEEEVAYISLYSYFSSRGRFGVVANNNRHVKDLYLIPLSAQDPVPSKLLPFEGPGLESPRPNIILGLVICQKIKRPANS
B13: PM13 (Saccharomyces cerevisiae/FHA1) (other)
chain: MENITQPTQQSTQATQRFLIEKFSQEQIGENIVCRVICTTGQIPIRDLSADISQVLKEKRSIKKVWTFGRNPACDYHLGNISRLSNKHFQILLGEDGNLLLNDISTNGTWLNGQKVEKNSNQLLSQGDEITVGVGVESDILSLVIFINDKFKQCLEQNKVDRIRSNLKNTSKIASPGLTSSTASSMVANKTGIFKDFSIIDEVVGQGAFATVKKAIERTTGKTFAVKIISKRKVIGNMDGVTRELEVLQKLNHPRIVRLKGFYEDTESYYMVMEFVSGG

Assays:
[1] = target: T1, …-Biotin; test: Octet (BLI), fixed reagent concentration
[2] = target: T2, p…-Biotin; test: Octet (BLI), fixed reagent concentration
[3] = tested on: p[…]-Biotin; test: Octet binding assay of PTM-specific affinity reagent candidates, pTQR peptide; details: fixed concentration of reagent
Protocol: This Example characterizes an exemplary phosphorylated threonine recognizer for use in methods of the disclosure. Octet binding assays at a fixed concentration of PTM-specific affinity reagent candidates were evaluated for binding with phospho-threonine, phospho-serine containing peptides (p[…]-Biotin; p[…]-Biotin; p[…]-Biotin), and control peptides without modifications ([…]-Biotin; […]-Biotin).

[4] = tested on: p[…]-Biotin; test: Octet binding assay of PTM-specific affinity reagent candidates, pTA peptide; details: fixed concentration of reagent
Excerpt: (§1) This Example characterizes an exemplary phosphorylated threonine recognizer for use in methods of the disclosure.

[5] = tested on: SAKLDEESILKQ-Biotin; test: Octet binding assay of PTM-specific affinity reagent candidates, SA control peptide; set-up: unit not given here; details: fixed concentration of reagent
Excerpt: as §1

[6] = target: T3, pSAKLDEESILKQ-Biotin; test: Octet (BLI), fixed reagent concentration;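 further: octet binding of candidate PTM-specific affinity reagents, each at one fixed concentration, to biotinylated phospho-Thr or phospho-Ser peptides, with unmodified biotinylated peptides serving as controls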
Protocol: (§2) Octet binding assays at a fixed concentration of PTM-specific affinity reagent candidates were evaluated for binding with phospho-threonine, phospho-serine containing peptides (p[sequence]-Biotin; p[sequence]-Biotin; p[sequence]-Biotin), and control peptides without modifications ([sequence]-Biotin; [sequence]-Biotin).

[7] = target: T4, TAKLDEESILKQ-Biotin; test: Octet (BLI), fixed reagent concentration;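 further: octet binding of candidate PTM-specific affinity reagents, each at one fixed concentration, to biotinylated phospho-Thr or phospho-Ser peptides, with unmodified biotinylated peptides serving as controls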
Protocol: as §2

[8] = target: T5, pTAKLDEESILKQ-Biotin; test: Octet (BLI), fixed reagent concentration;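 further: octet binding of candidate PTM-specific affinity reagents, each at one fixed concentration, to biotinylated phospho-Thr or phospho-Ser peptides, with unmodified biotinylated peptides serving as controls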
Protocol: as §2

Molecule	Octet binding assay response [1]	Octet binding assay response, pTQR [3]	Octet binding assay response [6]	Octet binding assay response [7]	other results
PM08 (Human/DLG4) (from UniProt P78352 426-724)	0.3				Octet binding assay response [2]: 1.2
PM09 (Human/BRCA1 Tandem domain) (from UniProt P38398 1646-1859)	0.1				
PM02: Human/14-3-3 protein theta, SEQ ID NO: 2		0.5			
PM16 (Human/PLK1) (from UniProt P53350 326-603)	0.5				Octet binding assay response ([2]; pTA phosphothreonine peptide): 1.7; Octet binding assay response ([2]; pTQR phosphothreonine peptide): 2.1
PM16: Human/PLK1, SEQ ID NO: 16		2.1			Octet binding assay response, pTA [4]: 1.7
PM08: Human/DLG4, SEQ ID NO: 8		1.2			
PM03: Human/14-3-3 protein eta, SEQ ID NO: 3		0.4			Octet binding assay response, SA ([5]; SA = […]-Biotin (control)): 0.3
PM15 (Human/Pin1) (from UniProt Q13526 1-163)	0.5				
PM15: Human/Pin1, SEQ ID NO: 15		7.4			Octet binding assay response, SA ([5]; SA = […]-Biotin (control)): 0.5
B1	0.2		0.2		
B2	0.2		0.1		
B3					Octet binding assay response, SA ([5]; SA = SAKLDEESILKQ-Biotin (control)): 0.2
B4	0.1	0.5	0.2	0.2	Octet binding assay response [2]: 0.5; Octet binding assay response [8]: 0.3; Octet binding assay response, SA ([5]; SA = […]-Biotin (control)): 0.1
B5	0.2	0.5	0.2	0.2	Octet binding assay response [2]: 0.5; Octet binding assay response [8]: 0.3
B6	0.2	1.0	0.2	0.1	Octet binding assay response ([2]; pTA phosphothreonine peptide): 1.1; Octet binding assay response ([2]; pTQR phosphothreonine peptide): 1; Octet binding assay response, pTA [4]: 1.1
B7	0.2	1.0	0.3	0.3	Octet binding assay response [2]: 1; Octet binding assay response [8]: 0.3; Octet binding assay response, SA ([5]; SA = […]-Biotin (control)): 0.2
B8	0.2		0.2		
B9	0.1		0.1		
B10	0.1	1.0	0.1	0.2	Octet binding assay response [2]: 1; Octet binding assay response [8]: 0.3
B11	0.1	0.3	0.1	0.2	Octet binding assay response [2]: 0.3; Octet binding assay response [8]: 0.2
B12	0.2		0.2		
B13	0.2	3.2	0.3	0.3	Octet binding assay response ([2]; pTA phosphothreonine peptide): 1.8; Octet binding assay response ([2]; pTQR phosphothreonine peptide): 3.2; Octet binding assay response, pTA [4]: 1.8; Octet binding assay response, SA ([5]; SA = […]-Biotin (control)): 0.2
